Results on one molecule are retold here after patent US20210054097A1 (Novo Nordisk, published 2021).

Assay [1] has as its target T1, human plasma-derived Factor X zymogen (human, UniProt P00742 41-179; P00742 183-488).
T1 construct: Plasma-derived, bought (Haematologic Technologies); also called FX; human FX
The assay can be described thus: apparent KD fitted from FXa generation assay. Here is the method: The ability of the monovalent anti-FX Nanobody® (Nb) to promote FIXa-mediated FX-activation was determined in the presence of a procoagulant phospholipid membrane according to the principles described by Scheiflinger et al. (2008) J Thromb Haemost, 6:315-322. A Fab of mAb 13F62 (IgG1 isotype, variable sequences identified by SEQ ID NO:6 and 7), also found to bind the activation peptide, were included for comparison. Moreover, anti-FX antibodies as disclosed in U.S. Pat. No. 9,334,331 (J327 and L404-k in said publication), corresponding to the anti-FX arm of ACE910); and more recently in WO2018/021450 (J327 D31H and JYL280 in said publication) and WO2018/098363 (BIIB-12-917 represented by SEQ ID NO:427 and 615 in said publication) are stated to be suitable for use as part of anti-FIX/anti-FX bispecific FVIII mimetic compounds were, furthermore, included for comparison.
Each compound was tested individually in a concentration range from 0-1000 nM, 0-2000 nM, 0-4000 nM or 0-8000 nM by pre-incubation with 1-1.5 nM human plasma-derived FIXa (Haematologic Technologies Inc, USA) and 500 μM 25:75 phosphatidyl serine:phosphatidyl choline phospholipid vesicles (Haematologic Technologies Inc, USA) in assay buffer (50 mM HEPES, 100 mM NaCl, 5 mM CaCl₂, 0.1% (w/v) PEG8000, 1 mg/mL bovine serum albumin, pH 7.3) for 10 minutes. The reaction was initiated by addition of human plasma-derived FX (Haematologic Technologies Inc, USA) to a final concentration of 100 nM and a reaction volume of 50 μL. Following 20 minutes activation at room temperature while agitated (1000 RPM), the reaction was quenched by addition of 25 μL quench buffer (50 mM HEPES, 100 mM NaCl, 60 mM EDTA, 0.1% (w/v) PEG8000, 1 mg/mL bovine serum albumin, pH 7.3). The amount of FXa generated was determined by addition of 25 μL 2 mM S-2765 chromogenic substrate for FXa (Chromogenix, Sweden) and chromogenic substrate conversion was followed by measuring absorbance at 405 nm for 10 minutes in a microplate reader. The observed change in 405 nm absorbance (ΔAbs405/min) was fitted to the quadratic binding equation (eq. 1) to obtain the peak stimulatory activity and EC50.

Assay [2] has as its target T1, human plasma-derived Factor X zymogen. The assay can be described thus: cell-based or functional assay.

T1 sequence (P00742 41-179, chain 1 of 2): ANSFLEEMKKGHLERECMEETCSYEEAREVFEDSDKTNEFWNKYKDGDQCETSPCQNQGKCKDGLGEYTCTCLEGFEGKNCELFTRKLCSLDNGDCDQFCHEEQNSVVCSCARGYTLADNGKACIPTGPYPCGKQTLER
T1 sequence (P00742 183-488, chain 2 of 2): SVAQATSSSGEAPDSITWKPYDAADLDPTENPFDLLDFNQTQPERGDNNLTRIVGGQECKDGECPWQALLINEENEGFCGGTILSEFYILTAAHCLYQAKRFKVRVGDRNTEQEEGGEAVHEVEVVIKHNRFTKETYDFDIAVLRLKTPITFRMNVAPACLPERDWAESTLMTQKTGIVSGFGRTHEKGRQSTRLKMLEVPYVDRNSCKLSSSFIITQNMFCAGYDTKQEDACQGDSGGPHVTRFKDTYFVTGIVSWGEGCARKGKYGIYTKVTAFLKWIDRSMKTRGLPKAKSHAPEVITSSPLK

B1: Fab of mAb 13F62 (Fab, V domains shown)
VH: EVQLVESGGGQVKPGGSLRLSCAASGFTFSTSSIYWVRQAPGKGLEWVSSISSGSSYIFYADSVKGRFTISRDNAKNSLFLQMNSLRAEDTAVYYCVSGYSRLLDYWGQGTLVTVSS
VL: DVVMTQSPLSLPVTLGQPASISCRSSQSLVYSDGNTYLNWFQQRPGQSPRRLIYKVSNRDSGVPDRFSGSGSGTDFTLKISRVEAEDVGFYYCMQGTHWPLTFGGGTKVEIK
notes: Fab of an IgG1 antibody; also called Fab of 13F62
Regarding B1, the Kd in assay [1] worked out at 3.1 nM. Further, the “Increase in FX activation (fold)” value in assay [2] came out at 1.5 fold.
